Where “and” joins values, the source holds several entries; their conditions need not be identical. Identical values can stand only once.
Details: whole UniProt chain shown
[1] = Saccharomyces cerevisiae (strain ATCC 204508 / S288c), pH 6, 20 °C, GdnHCl, Fluorescence, Sodium phosphate 0.1 M, reversible: yes
[2] = Saccharomyces cerevisiae (strain ATCC 204508 / S288c), pH 6, Thermal, DSC, Sodium phosphate 0.1 M, KCl 0.05 M, reversible: yes (70-80%)
[3] = Saccharomyces cerevisiae (strain ATCC 204508 / S288c), pH 7.2, 20 °C, GdnHCl, Fluorescence, Sodium phosphate 0.1 M
[4] = Paracoccus pantotrophus, pH 7, 25 °C, Urea, CD, Sodium phosphate 20 mM, Na2SO4 0.5 M, reversible: yes
[5] = Rattus norvegicus, pH 7.5, Thermal, Fluorescence, TEA 50 mM, transition: 3
[6] = Ovis aries, pH 7, 25 °C, GdnHCl, CD, HEPES 20 mM, reversible: yes
[7] = Ovis aries, pH 7, 25 °C, GdnHCl, Fluorescence, HEPES 20 mM, reversible: yes
[8] = Saccharolobus solfataricus (strain ATCC 35092 / DSM 1617 / JCM 11322 / P2), pH 7, Thermal, DSC, Unknown, reversible: yes
[9] = Mus musculus, pH 7.2, 25 °C, Urea, Fluorescence, Sodium phosphate 20 mM, Sodium chloride 100 mM, reversible: Yes
[10] = Oryza sativa subsp. japonica, pH 7, Thermal, DSC, Potassium phosphate buffer, NaCl, reversible: yes
[11] = Saccharomyces cerevisiae (strain ATCC 204508 / S288c), pH 8.5, Thermal, DSC, Tris 0.05 M, reversible: no
[12] = Saccharomyces cerevisiae (strain ATCC 204508 / S288c), pH 6, Thermal, Absorbance, Sodium phosphate 100 mM, reversible: yes
[13] = Pectobacterium carotovorum, pH 7.4, Thermal, DSC, CGH-10, reversible: no

B1: Cytochrome c mitochondrial import factor CYC2 wild type, P38909 (protein)
chain: MLWKNYVLSSSRITRRLHKSPRKSSFSKNFFITGCLLTVGAVSSYLTYRYTSERENKHELSPSYFVKYKISHKRDIDSSHFLLEVTPLFKQKVNIWSLMTAENLWSVEIKQPEVMVVRNYTPLPLKFNPASKEIEILKDGDNADGKLSFYIKKYENGEVARWLHHLPKGHIIEIRGPFIDYEFPHLPNELKRSRDCLYMDNRNERGNNVRENSQFIYQPYDIMMFTAGTGIVTALQLLLTESPFRGTIKLFHTDKNIKQLGPLYPILLRLQASNRVQLKIFETDRQTKQDVLKSIQKSITKPYPYKGLLPFSNVNNKNIMPVLALVCGPESYISSISGRKYDLNQGPVGGLLSKEGWNSDNVYKLS
unfolding free energy (Saccharomyces cerevisiae (strain ATCC 204508 / S288c), pH 6, 20 °C, GdnHCl, DSC, Sodium phosphate 0.1 M, reversible: yes): 4.2 kcal/mol
denaturant m value [1]: 3.2 kcal/mol/M
denaturant midpoint (higher = more stable) [1]: 1.5 M
unfolding free energy [1]: 4.9 kcal/mol
unfolding free energy (Saccharomyces cerevisiae (strain ATCC 204508 / S288c), pH 6, 20 °C, GdnHCl, Fluorescence, Sodium phosphate 0.1 M): 3.8 kcal/mol
Tm [2]: 79.4 °C
unfolding enthalpy (calorimetric) [2]: 113 kcal/mol
unfolding enthalpy (van 't Hoff) [2]: 140 kcal/mol
denaturant midpoint (higher = more stable) [3]: 1.49 M
unfolding free energy [3]: 3.8 kcal/mol

B2: Pseudoazurin wild type, P80401 (protein)
chain: MFHHSLAAAAAALLALAAPGFAATHEVHMLNKGESGAMVFEPAFVRAEPGDVINFVPTDKSHNVEAIKEILPEGVESFKSKINESYTLTVTEPGLYGVKCTPHFGMGMVGLVQVGDAPENLDAAKTAKMPKKARERMDAELAQVN
denaturant m value [4]: 1.87 kcal/mol/M
unfolding free energy [4]: 6.88 kcal/mol

B3: T-cell surface antigen CD2 wild type, P08921 (protein)
chain: MRCKFLGSFFLLFSLSSKGADCRDSGTVWGALGHGINLNIPNFQMTDDIDEVRWERGSTLVAEFKRKMKPFLKSGAFEILANGDLKIKNLTRDDSGTYNVTVYSTNGTRILNKALDLRILEMVSKPMIYWECSNATLTCEVLEGTDVELKLYQGKEHLRSLRQKTMSYQWTNLRAPFKCKAVNRVSQESEMEVVNCPEKGLPLYLIVGVSAGGLLLVFFGALFIFCICKRKKRNRRRKGEELEIKASRMSTVERGPKPHSTQASAPASQNPVASQAPPPPGHHLQTPGHRPLPPSHRNREHQPKKRPPPSGTQVHQQKGPPLPRPRVQPKPPCGSGDVSLPPPN
Tm [5]: 24.9 °C
heat capacity change of unfolding [5]: 0.5 kcal/mol/K and 0.98 kcal/mol/K
unfolding enthalpy (van 't Hoff) [5]: 14.5 kcal/mol

B4: Amicyanin wild type, P22364 (protein)
chain: MISATKIRSCLAACVLAAFGATGALADKATIPSESPFAAAEVADGAIVVDIAKMKYETPELHVKVGDTVTWINREAMPHNVHFVAGVLGEAALKGPMMKKEQAYSLTFTEAGTYDYHCTPHPFMRGKVVVE
Tm (Paracoccus denitrificans, pH 7.5, Thermal, CD, Potassium Phosphate Buffer 100 mM): 60 °C and 55 °C
Tm (Paracoccus denitrificans, pH 7.5, Thermal, absorbance, Potassium Phosphate Buffer 10 mM): 66.4 °C

B5: Pyridoxal kinase wild type, P82197 (protein)
chain: MEEECRVLSIQSHVVRGYVGNRAATFPLQVLGFEVDAVNSVQFSNHTGYSHWKGQVLNSDELQELYDGLKLNHVNQYDYVLTGYTRDKSFLAMVVDIVQELKQQNPRLVYVCDPVMGDQRNGEGAMYVPDDLLPVYREKVVPVADIITPNQFEAELLTGRKIHSQEEALEVMDMLHSMGPDTVVITSSNLLSPRGSDYLMALGSQRTRAPDGSVVTQRIRMEMHKVDAVFVGTGDLFAAMLLAWTHKHPNNLKVACEKTVSAMHHVLQRTIKCAKAKSGEGVKPSPAQLELRMVQSKKDIESPEIVVQATVL
denaturant m value [6]: 2.41 kcal/mol/M
unfolding free energy [6]: 1.55 kcal/mol
denaturant m value [7]: 2.9 kcal/mol/M
unfolding free energy [7]: 1.5 kcal/mol

B6: DNA-binding protein 7d wild type, P39476 (protein)
chain: MATVKFKYKGEEKEVDISKIKKVWRVGKMISFTYDEGGGKTGRGAVSEKDAPKELLQMLEKQKK
Tm (Saccharolobus solfataricus (strain ATCC 35092 / DSM 1617 / JCM 11322 / P2), pH 4.5, Thermal, NMR, Unknown): 60.9 °C
unfolding free energy (Saccharolobus solfataricus (strain ATCC 35092 / DSM 1617 / JCM 11322 / P2), pH 6.1, 25 °C, GdnHCl, Fluorescence, MES 50 mM, NaCl 100 mM): 5.93 kcal/mol
Tm [8]: 99 °C
heat capacity change of unfolding [8]: 0.75 kcal/mol/K
unfolding enthalpy (calorimetric) [8]: 65 kcal/mol

B7: Adapter molecule crk wild type, Q64010 (protein)
chain: MAGNFDSEERSSWYWGRLSRQEAVALLQGQRHGVFLVRDSSTSPGDYVLSVSENSRVSHYIINSSGPRPPVPPSPAQPPPGVSPSRLRIGDQEFDSLPALLEFYKIHYLDTTTLIEPVARSRQGSGVILRQEEAEYVRALFDFNGNDEEDLPFKKGDILRIRDKPEEQWWNAEDSEGKRGMIPVPYVEKYRPASASVSALIGGNQEGSHPQPLGGPEPGPYAQPSVNTPLPNLQNGPIYARVIQKRVPNAYDKTALALEVGELVKVTKINVSGQWEGECNGKRGHFPFTHVRLLDQQNPDEDFS
denaturant m value [9]: 0.66 kcal/mol/M
unfolding free energy [9]: 3.33 kcal/mol

B8: D-amino-acid oxidase wild type, P80324 (protein)
chain: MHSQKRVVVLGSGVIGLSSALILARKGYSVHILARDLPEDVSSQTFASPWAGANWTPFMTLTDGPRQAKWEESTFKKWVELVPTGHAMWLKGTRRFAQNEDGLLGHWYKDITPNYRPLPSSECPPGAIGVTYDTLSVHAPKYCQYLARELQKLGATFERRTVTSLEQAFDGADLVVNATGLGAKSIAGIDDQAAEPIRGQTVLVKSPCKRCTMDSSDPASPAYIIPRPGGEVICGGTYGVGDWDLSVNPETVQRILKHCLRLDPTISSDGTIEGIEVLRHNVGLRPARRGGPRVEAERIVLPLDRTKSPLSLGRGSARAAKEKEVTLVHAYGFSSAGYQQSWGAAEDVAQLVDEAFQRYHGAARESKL
Tm (Rhodotorula toruloides, pH 7.5, Thermal, CD, Potassium phosphate 50 mM, reversible: No): 50.2 °C and 48 °C
Tm (Rhodotorula toruloides, pH 7.5, Thermal, DSC, Potassium phosphate 50 mM, reversible: No): 56.9 °C and 55.9 °C
Tm (Rhodotorula toruloides, pH 7.5, Thermal, Fluorescence, Potassium phosphate 50 mM, NH4SCN 0.5 M, reversible: No): 39 °C and 39.7 °C

B9: NAD(P)H-dependent FMN reductase LOT6 wild type, Q07923 (protein)
chain: MKVGIIMGSVRAKRVCPEIAAYVKRTIENSEELIDQKLKIQVVDLQQIALPLYEDDDELIPAQIKSVDEYADSKTRSWSRIVNALDIIVFVTPQYNWGYPAALKNAIDRLYHEWHGKPALVVSYGGHGGSKCNDQLQEVLHGLKMNVIGGVAVKIPVGTIPLPEDIVPQLSVHNEEILQLLASCIETTRNK
Tm (Saccharomyces cerevisiae (strain ATCC 204508 / S288c), pH 7.5, Thermal, CD, Tris-HCl 100 mM, reversible: No): 60.2 °C

B10: Cyanovirin-N wild type, P81180 (protein)
chain: LGKFSQTCYNSAIQGSVLTSTCERTNGGYNTSSIDLNSVIENVDGSLKWQPSNFIETCRNTQLAGSSELAAECKTRAQQFVSTKINLDDHIANIDGTLKYE
Tm (Nostoc ellipsosporum, pH 6, Thermal, CD, Sodium phosphate 10 mM): 48.5 °C

B11: Protein CutA 1, chloroplastic wild type, Q109R6 (protein)
chain: MPLLPSPLGSLSAAATAAPRRAAAAAGLSPLLLRRRAPIAGALLFLSLGAFAGVRSLSSSASARMESTSTTVPSIVVYVTVPNKEAGKRLAGSIISEKLAACVNIVPGIESVYWWEGKVQTDAEELLIIKTRESLLDALTEHVKANHEYDVPEVIALPIKGGNLKYLEWLKNSTRES
Tm [10]: 97.3 °C
unfolding enthalpy (calorimetric) [10]: 347 kcal/mol
unfolding free energy [10]: 0.79 kcal/mol
denaturant midpoint (higher = more stable) (Oryza sativa subsp. japonica, pH 8, 37 °C, GdnHCl, CD, Tris-HCl buffer, NaCl, transition: 2, reversible: yes): 2.3 M

B12: Granulocyte-macrophage colony-stimulating factor wild type, P01587 (protein)
chain: MWLQNLLFLGIVVYSLSAPTRSPITVTRPWKHVEAIKEALNLLDDMPVTLNEEVEVVSNEFSFKKLTCVQTRLKIFEQGLRGNFTKLKGALNMTASYYQTYCPPTPETDCETQVTTYADFIDSLKTFLTDIPFECKKPGQK
unfolding free energy (Mus musculus, pH 9, 4 °C, Urea, CD, Tris-glycine 50 mM, reversible: yes): 5.78 kcal/mol

B13: Triosephosphate isomerase wild type, P00942 (protein)
chain: MARTFFVGGNFKLNGSKQSIKEIVERLNTASIPENVEVVICPPATYLDYSVSLVKKPQVTVGAQNAYLKASGAFTGENSVDQIKDVGAKWVILGHSERRSYFHEDDKFIADKTKFALGQGVGVILCIGETLEEKKAGKTLDVVERQLNAVLEEVKDWTNVVVAYEPVWAIGTGLAATPEDAQDIHASIRKFLASKLGDKAASELRILYGGSANGSNAVTFKDKADVDGFLVGGASLKPEFVDIINSRN
Tm [11]: 59 °C
heat capacity change of unfolding [11]: 11.7 kcal/mol/K
unfolding enthalpy (calorimetric) [11]: 318 kcal/mol

B14: Holocytochrome-c synthase wild type, P06182 (protein)
chain: MGWFWADQKTTGKDIGGAAVSSMSGCPVMHESSSSSPPSSECPVMQGDNDRINPLNNMPELAASKQPGQKMDLPVDRTISSIPKSPDSNEFWEYPSPQQMYNAMVRKGKIGGSGEVAEDAVESMVQVHNFLNEGCWQEVLEWEKPHTDESHVQPKLLKFMGKPGVLSPRARWMHLCGLLFPSHFSQELPFDRHDWIVLRGERKAEQQPPTFKEVRYVLDFYGGPDDENGMPTFHVDVRPALDSLDNAKDRMTRFLDRMISGPSSSSSAP
Tm [12]: 46.5 °C
heat capacity change of unfolding [12]: 2 kcal/mol/K
unfolding enthalpy (van 't Hoff) [12]: 79 kcal/mol

B15: wild type, Q88HV5 (protein)
chain: MPFQQGLLATPVPAHARHLFFTLQSPEALPAALDALLPQVDGKQLLLGVGAPLAKALGREIPGLRPFPLLDAAVENPSTQHALWLWLRGDERGDLLLRTQALEQALAPALSLADSVDGFLHRGGHDLTGYEDGTENPTDEEAVQAAIAADGSSFAAFQLWKHDLQYFKSLPQADQDNIIGRRLSDNEELDDAPASAHVKRTAQESFEPEAFMVRRSVSWADQRGAGLAFVALGKSFEAFEVQLRRMSGLEDGIIDGLYRFSRPLTGGYYWCPPMSETGVDLSPLLRA
Tm (Pseudomonas putida (strain ATCC 47054 / DSM 6125 / CFBP 8728 / NCIMB 11950 / KT2440), pH 7.6, Fluorescence spectroscopy): 65 °C

B16: Pectate lyase wild type, Q47471 (protein)
chain: MFKYLTPIFLCTAAFSFQAQADDTMLMLLKKDNATYLSWSTDAGNVVRQDVYRSTSNNQAGSEKIAELNSTDRTFTDLTANPKSDYWYWVDTVSSNNNVQKSNAAQTAPAPLRAAPLKAASSECKAGAVIKDKTVDCGGITLGLSCTGDSDKQPPVITLENATIKNLRISEKGGSDGIHCKSGNCRIENVIWEDVCEDAATNLGKTMTIVGGVAHNTTNGPGGKPDKVLQQNAKNSHTIVQGNFTLTGQHGKLWRSCGDCTNNGGPRNLTIISATVNGTIDSIAGVNRNFGDVAEIRDLRIKNYKAGNPKICEEFKGIEKGKGKTEKYGEFWDSKNCKVSRSNVKAL
unfolding free energy (Pectobacterium carotovorum, pH 7.4, 25 °C, GdnHCl, DSC, CGH-10, reversible: no): 8.7 kcal/mol
Tm [13]: 81.1 °C
unfolding enthalpy (calorimetric) [13]: 102 kcal/mol

Source: FireProtDB
